The target of one series is T1, SSTR1 (Homo sapiens, UniProt P30872).
T1 construct: host or cells: CHO-K1
Put plainly: Radio-ligand binding assay, SSTR1. The procedure: (§1) Graphical and tabular representation of the percentage inhibition of specific binding, as IC50 (nM) binding values for the analogues against the five SSTR1-SSTR5 is represented in Supplementary Fig. 1b and Supplementary Table 1. […] IC50 values were determined by a non-linear, least squares regression analysis using Prism 9 (GraphPad Software, USA), using the Dose-response inhibition (three-parameters) model. […]
(§2) (SSTR1-SSTR5), using a Radio-ligand Binding Assay (Supplementary Figure 1b). Cells were incubated in HEPES buffer pH 7.4 with the new analogues of Cortistatin at 10 different concentrations in a range […]
(§3) specifically bound (performed at Eurofins Panlabs, Inc.). The radioactivity obtained in the absence of SST14 is considered as total binding and that obtained in the presence of 1 µM of SST14 is considered as nonspecific binding. Specific binding was considered as the difference between total and nonspecific.
(§4) Biochemical assay results are presented as the percent inhibition of specific bindin g (% inhib ition) as a […]
(§5) part of each binding assay with the five (SSTR1 -SS T R5 ) . I C50 values were determined by a non-linear, least squares regression analysis using Prism 9 (GraphPad Software, USA), using the Dose -response inhibit ion (t hree-parameters) model.

Another series deals with T2, SSTR2 (Homo sapiens, UniProt P30874).
T2 construct: host or cells: CHO-K1
T2 sequence (P30874 whole entry): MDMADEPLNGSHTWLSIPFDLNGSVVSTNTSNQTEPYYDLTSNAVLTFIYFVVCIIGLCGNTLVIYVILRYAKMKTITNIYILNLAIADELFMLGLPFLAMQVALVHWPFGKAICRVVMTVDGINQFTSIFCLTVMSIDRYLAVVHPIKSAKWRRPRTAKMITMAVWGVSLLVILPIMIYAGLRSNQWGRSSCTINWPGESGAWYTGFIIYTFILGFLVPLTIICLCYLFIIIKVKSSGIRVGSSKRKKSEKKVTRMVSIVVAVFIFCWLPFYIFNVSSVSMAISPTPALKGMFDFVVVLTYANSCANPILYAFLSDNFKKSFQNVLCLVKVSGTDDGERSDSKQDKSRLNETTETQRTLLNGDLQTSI
The series can be described thus: Radio-ligand binding assay, SSTR2. The method, then: as §1, §2, §3, §4, §5

A further series addresses T3, SSTR3 (Homo sapiens, UniProt P32745).
T3 construct: host or cells: CHO-K1
The series can be described thus: Radio-ligand binding assay, SSTR3. The method, then: as §1, §2, §3, §4, §5

In series [1] the target is Somatostatin receptor 3 (SSTR3) (human), P32745. As to conditions: L-mesityl alanine (2,4,6-trimethylphenylalanine, Msa) in place of Phe6; D-Trp at position 7; disulfide bridge between the two cysteines.
Somatostatin receptor 3 (SSTR3) (human), P32745, sequence (P32745 whole entry): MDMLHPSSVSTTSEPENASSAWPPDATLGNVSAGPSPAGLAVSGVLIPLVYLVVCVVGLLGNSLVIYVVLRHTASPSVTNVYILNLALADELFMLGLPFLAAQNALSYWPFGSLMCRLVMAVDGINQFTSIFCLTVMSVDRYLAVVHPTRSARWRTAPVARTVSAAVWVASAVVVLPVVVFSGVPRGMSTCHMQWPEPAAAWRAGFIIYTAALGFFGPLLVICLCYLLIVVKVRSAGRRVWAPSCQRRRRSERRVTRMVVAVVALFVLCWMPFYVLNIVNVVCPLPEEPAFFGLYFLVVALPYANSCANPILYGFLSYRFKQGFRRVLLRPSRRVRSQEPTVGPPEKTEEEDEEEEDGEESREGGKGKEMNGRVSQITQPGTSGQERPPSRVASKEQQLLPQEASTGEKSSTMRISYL
Series [2] has as its target Somatostatin receptor 1 (SSTR1) (human), P30872. As to conditions: L-mesityl alanine (2,4,6-trimethylphenylalanine, Msa) in place of Phe6; D-Trp at position 7; disulfide bridge between the two cysteines.
Series [3] addresses Somatostatin receptor 5 (SSTR5) (human), P35346. The settings on record: L-mesityl alanine (2,4,6-trimethylphenylalanine, Msa) in place of Phe6; D-Trp at position 7; disulfide bridge between the two cysteines.
The target in series [4] is Somatostatin receptor 2 (SSTR2) (human), P30874. The settings on record: L-mesityl alanine (2,4,6-trimethylphenylalanine, Msa) in place of Phe6; D-Trp at position 7; disulfide bridge between the two cysteines.
Somatostatin receptor 2 (SSTR2) (human), P30874, sequence (P30874 whole entry): as the sequence (P30874 whole entry) above
Series [5] addresses Somatostatin receptor 1 (SSTR1) (human), P30872. The series can be described thus: competition with 125I-Tyr11 SST14. As to conditions: D-Trp at position 7, disulfide bridge between the two cysteines.
For series [6], the target named is Somatostatin receptor 2 (SSTR2) (human), P30874. The series can be described thus: competition with 125I-Tyr11 SST14. The settings on record: D-Trp at position 7, disulfide bridge between the two cysteines.
For series [7], the target named is Somatostatin receptor 3 (SSTR3) (human), P32745. Put plainly: competition with 125I-Tyr11 SST14.
For series [8], the target named is Somatostatin receptor 5 (SSTR5) (human), P35346. The series can be described thus: competition with 125I-Tyr11 SST14. As to conditions: D-Trp at position 7, disulfide bridge between the two cysteines.
Somatostatin receptor 5 (SSTR5) (human), P35346, sequence (P35346 whole entry): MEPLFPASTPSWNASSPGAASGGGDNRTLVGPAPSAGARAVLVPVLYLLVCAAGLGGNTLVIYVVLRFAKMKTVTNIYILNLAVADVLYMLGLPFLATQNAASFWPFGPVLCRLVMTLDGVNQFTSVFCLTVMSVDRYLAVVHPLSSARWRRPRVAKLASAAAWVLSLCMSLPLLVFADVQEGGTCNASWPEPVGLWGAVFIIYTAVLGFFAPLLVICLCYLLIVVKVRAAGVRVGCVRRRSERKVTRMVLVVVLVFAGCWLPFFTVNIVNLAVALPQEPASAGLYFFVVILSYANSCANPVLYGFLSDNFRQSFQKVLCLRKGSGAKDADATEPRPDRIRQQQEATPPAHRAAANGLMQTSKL
Series [9] deals with Somatostatin receptor 3 (SSTR3) (human), P32745. The settings on record: L-mesityl alanine (Msa) in place of Phe5; D-Trp at position 7; disulfide bridge between the two cysteines.
Series [10] has as its target Somatostatin receptor 1 (SSTR1) (human), P30872. The settings on record: L-mesityl alanine (Msa) in place of Phe5; D-Trp at position 7; disulfide bridge between the two cysteines.
In series [11] the target is Somatostatin receptor 5 (SSTR5) (human), P35346. The settings on record: L-mesityl alanine (Msa) in place of Phe5; D-Trp at position 7; disulfide bridge between the two cysteines.
Series [12] concerns the target Somatostatin receptor 2 (SSTR2) (human), P30874. The settings on record: L-mesityl alanine (Msa) in place of Phe5; D-Trp at position 7; disulfide bridge between the two cysteines.
For series [13], the target named is Somatostatin receptor 3 (SSTR3) (human), P32745. As to conditions: octanoyl moiety at the N-terminus (N-octanoyl amide); L-mesityl alanine (Msa) at position 5; D-Trp at position 7; disulfide bridge between the two cysteines.
The target of series [14] is Somatostatin receptor 1 (SSTR1) (human), P30872. As to conditions: octanoyl moiety at the N-terminus (N-octanoyl amide); L-mesityl alanine (Msa) at position 5; D-Trp at position 7; disulfide bridge between the two cysteines.
Somatostatin receptor 1 (SSTR1) (human), P30872, sequence (P30872 whole entry): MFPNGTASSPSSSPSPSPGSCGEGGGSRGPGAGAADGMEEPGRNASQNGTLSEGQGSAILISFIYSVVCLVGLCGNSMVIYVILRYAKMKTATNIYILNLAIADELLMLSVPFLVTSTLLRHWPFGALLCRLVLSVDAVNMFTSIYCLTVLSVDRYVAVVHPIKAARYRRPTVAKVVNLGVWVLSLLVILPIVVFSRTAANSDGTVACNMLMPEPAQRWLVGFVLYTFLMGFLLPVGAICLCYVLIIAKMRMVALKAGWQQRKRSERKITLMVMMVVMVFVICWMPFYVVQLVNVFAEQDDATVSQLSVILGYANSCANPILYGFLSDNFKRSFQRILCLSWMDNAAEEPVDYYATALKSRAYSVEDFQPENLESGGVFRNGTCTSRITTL
Series [15] concerns the target Somatostatin receptor 5 (SSTR5) (human), P35346. As to conditions: octanoyl moiety at the N-terminus (N-octanoyl amide); L-mesityl alanine (Msa) at position 5; D-Trp at position 7; disulfide bridge between the two cysteines.
For series [16], the target named is Somatostatin receptor 2 (SSTR2) (human), P30874. The settings on record: octanoyl moiety at the N-terminus (N-octanoyl amide); L-mesityl alanine (Msa) at position 5; D-Trp at position 7; disulfide bridge between the two cysteines.
Series [17] addresses Somatostatin receptor 1 (SSTR1) (human), P30872. As to conditions: chains peptide; internal disulfide bond between the two cysteines (cyclic peptide).
Series [18] concerns the target Somatostatin receptor 5 (SSTR5) (human), P35346. The settings on record: chains peptide; internal disulfide bond between the two cysteines (cyclic peptide).
The target of series [19] is Somatostatin receptor 4 (SSTR4) (human), P31391. As to conditions: chains peptide; internal disulfide bond between the two cysteines (cyclic peptide).
Somatostatin receptor 4 (SSTR4) (human), P31391, sequence (P31391 whole entry): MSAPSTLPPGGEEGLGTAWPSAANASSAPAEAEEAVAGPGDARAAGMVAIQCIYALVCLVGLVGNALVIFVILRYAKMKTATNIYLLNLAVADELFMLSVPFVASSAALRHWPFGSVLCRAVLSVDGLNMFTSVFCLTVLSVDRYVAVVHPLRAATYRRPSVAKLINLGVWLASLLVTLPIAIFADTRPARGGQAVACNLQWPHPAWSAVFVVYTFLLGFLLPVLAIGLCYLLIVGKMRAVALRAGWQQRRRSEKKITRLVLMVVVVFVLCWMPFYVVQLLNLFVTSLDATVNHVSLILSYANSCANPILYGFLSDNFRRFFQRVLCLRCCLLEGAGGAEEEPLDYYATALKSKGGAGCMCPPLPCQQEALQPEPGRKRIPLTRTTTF
Series [20] concerns the target Somatostatin receptor 2 (SSTR2) (human), P30874. The settings on record: chains peptide; internal disulfide bond between the two cysteines (cyclic peptide).
The target of series [21] is Somatostatin receptor 3 (SSTR3) (human), P32745. The settings on record: N-octanoyl amide on the N-terminal residue; L-mesityl alanine (Msa) at position 6; D-Trp at position 7; disulfide bridge between the two cysteines.
Series [22] deals with Somatostatin receptor 1 (SSTR1) (human), P30872. As to conditions: N-octanoyl amide on the N-terminal residue; L-mesityl alanine (Msa) at position 6; D-Trp at position 7; disulfide bridge between the two cysteines.
Series [23] has as its target Somatostatin receptor 5 (SSTR5) (human), P35346. As to conditions: N-octanoyl amide on the N-terminal residue; L-mesityl alanine (Msa) at position 6; D-Trp at position 7; disulfide bridge between the two cysteines.
The target of series [24] is Somatostatin receptor 2 (SSTR2) (human), P30874. As to conditions: N-octanoyl amide on the N-terminal residue; L-mesityl alanine (Msa) at position 6; D-Trp at position 7; disulfide bridge between the two cysteines.
Setting [25] is: L-mesityl alanine (2,4,6-trimethylphenylalanine, Msa) in place of Phe6.
Setting [26] is: L-mesityl alanine (Msa) in place of Phe5.
Where [27] appears, read: octanoyl moiety at the N-terminus (N-octanoyl amide), L-mesityl alanine (Msa) at position 5.
Setting [28] is: N-octanoyl amide on the N-terminal residue, L-mesityl alanine (Msa) at position 6.

Where two headings read alike, the source gives them in different places. Bridges are numbered along the chain shown (N, C = ends). Where no end group is shown, it is not given here.

T1 sequence (P30872 whole entry): as the sequence (P30872 whole entry) above
T3 sequence (P32745 whole entry): as the sequence (P32745 whole entry) above

Regarding `Cc1cc(C)c(C[C@@H]2NC(=O)[C@H](Cc3ccccc3)NC(=O)[C@H](CC(N)=O)NC(=O)[C@H](CCCCN)NC(=O)[C@@H](NC(=O)[C@@H]3CCCN3)CSSC[C@@H](C(=O)N[C@@H](CCCCN)C(=O)O)NC(=O)[C@H](CO)NC(=O)[C@H]([C@@H](C)O)NC(=O)[C@H](Cc3ccccc3)NC(=O)[C@H]([C@@H](C)O)NC(=O)[C@H](CCCCN)NC(=O)[C@@H](Cc3c[nH]c4ccccc34)NC2=O)c(C)c1` [A2], the IC50 at SSTR1 was found to be 14.1 nM; at SSTR2, 0.42 nM; at SSTR3 it was 16 nM.
As for PCKNFFWKTFSSCK, the cleaved bond result was “Cys13-L-Lys14, major”.
Regarding `CCCCCCCC(=O)N1CCC[C@H]1C(=O)N[C@H]1CSSC[C@@H](C(=O)N[C@@H](CCCCN)C(=O)O)NC(=O)[C@H](CO)NC(=O)[C@H]([C@@H](C)O)NC(=O)[C@H](Cc2ccccc2)NC(=O)[C@H]([C@@H](C)O)NC(=O)[C@H](CCCCN)NC(=O)[C@@H](Cc2c[nH]c3ccccc23)NC(=O)[C@H](Cc2c(C)cc(C)cc2C)NC(=O)[C@H](Cc2ccccc2)NC(=O)[C@H](CC(N)=O)NC(=O)[C@H](CCCCN)NC1=O` [A3], the IC50 at SSTR2 worked out at 2.8 nM.
With PCKNFFWKTFTSCK [Cortistatin analogue 2], the IC50 in [1] was 16 nM; in series [2], 14.1 nM; in [3], 33 nM; in series [4], 0.42 nM; in [5] (setting [25]), 14.1 nM; in series [6] (setting [25]), 0.42 nM. Moreover, the IC50 in [7] (L-mesityl alanine (2,4,6-trimethylphenylalanine, Msa) in place of Phe6, D-Trp at position 7, disulfide bridge between the two cysteines) worked out at 16 nM; in series [8] (setting [25]), 33 nM.
PCKNFFWKTFTSCK [Cortistatin analogue 4]: the IC50 in series [9] came to 1.8 nM; in [10] it was 14.7 nM; in [11], 4 nM; in series [12] it was 9.8 nM; in series [5] (setting [26]) it was 14.7 nM; in [6] (setting [26]), 9.8 nM. Further, the IC50 in [7] (L-mesityl alanine (Msa) in place of Phe5, D-Trp at position 7, disulfide bridge between the two cysteines) was determined as 1.8 nM; in [8] (setting [26]) it was 4 nM.
As to PCKNFFWKTFTSCK [Cortistatin analogue 5], the IC50 in [13] stood at 5.1 nM; in series [14], 47.3 nM; in [15] it was 1.12 nM; in series [16], 35 nM; in series [5] (setting [27]) it was 47.3 nM; in series [6] (setting [27]) it was 35 nM. For the same molecule, the IC50 is 5.1 nM in [7] (octanoyl moiety at the N-terminus (N-octanoyl amide), L-mesityl alanine (Msa) at position 5, D-Trp at position 7, disulfide bridge between the two cysteines) and 1.12 nM in series [8] (setting [27]).
On to PCKNFFWKTFSSCK (disulfide 2-13 (inferred)) [Cortistatin-14 (r,mCST-14), Q62949 99-112], for which the half-inhibitory concentration (IC50) in series [17] was 1.7 nM; in series [18], 0.3 nM; in series [19], 0.2 nM; in series [20], 0.09 nM; in series [7] (chains peptide, internal disulfide bond between the two cysteines (cyclic peptide)) it was 0.3 nM.
Turning to PCKNFFWKTFTSCK [Cortistatin analogue 3], the IC50 in [21] is 100 nM; in series [22], above 300 nM; in series [23], above 300 nM; in series [24], 2.8 nM; in [5] (setting [28]), above 300 nM; in series [6] (setting [28]), 2.8 nM. For the same molecule, the IC50 in series [7] (N-octanoyl amide on the N-terminal residue, L-mesityl alanine (Msa) at position 6, D-Trp at position 7, disulfide bridge between the two cysteines) was 100 nM; in [8] (setting [28]), above 300 nM.
